# Measured values from publication PMC9871958 (Protein & Cell, 2022).
# Positions count from the first letter of the chain named.
# B1: 1F mutated at R102 (antibody, V domains shown)
# VH: EVQLVESGPGLVKPSETLSLTCTVSGGSISSSSYYWGWIRQPPGKGLEWIGSIYYRGSTYYNPSLKSRVTISVDTSKNQFSLKLSSVTAADTAVYYCARHVASAYYYGSGSYRDEGNWFDPWGQGTLVTVSS
# VL: QSVLTQPPSVSGAPGQRVTISCTGTRSNIGAGHDVHWYQQLPGTAPKLLIYGNNNRPSGVPDRFSGAKSGTSASLAITGLQAEDEADYYCQSYDRTLTSYVFGTGTKVTVL
# notes: also called mutated 1F (R102)
# B2: 1F mutated at D114 (antibody, V domains shown)
# VH: B1 VH with A102R, D114A
# VL: B1 VL
# notes: also called mutated 1F (D114)
# Biological target: SARS-CoV-2 RBD protein (SARS-CoV-2, UniProt P0DTC2)
# Experiment: ELISA
# Details: both partners purified
row,Binder,binding result
1,B1,no binding
2,B2,no binding
